Data set [1] concerns the target human Brk1, in vitro translated, N-terminally tagged (PC-Brk1; the other copies in the self-association experiments are SBP-, Flag- or HA-Brk1) (human) (UniProt Q8WUW1). Put plainly: co-IP; PC-Brk1, SBP-Brk1 and HA-Wave2 co-translated in vitro; PC immunoprecipitation, then SBP precipitation or HA immunoprecipitation as a second step.
Data set [2] deals with the molecule itself. Put plainly: cross-linking; pooled SEC fractions of partially purified free untagged Brk1; glutaraldehyde 0.2% final or 2-fold dilutions, 50 mM Tris pH 8.0, 10 min, room temperature; Brk1 western blot.
Data set [3] concerns the molecule itself. As to the kind of experiment: co-IP; PC-, SBP-, Flag- and HA-Brk1 co-produced by in vitro translation with 35S-methionine; three sequential native precipitations (PC eluted with EDTA, SBP on streptavidin eluted with biotin, then Flag or HA); autoradiography.

“HA-Wave2, in vitro translated (from UniProt Q9Y6W5 1-498) (natural protein)”: in data set [1], the stoichiometry N (usually the number of molecules, sites or subunits per partner or assembly) was found to be 1.

B1: untagged Brk1 (free Brk1), partially purified from transfected 293T cells (natural protein, human, UniProt Q8WUW1 1-75, looked up)
chain: MAGQEDPVQREIHQDWANREYIEIITSSIKKIADFLNSFDMSCRSRLATLNEKLTALERRIEYIEARVTKGETLT
notes: Brick1 (Brk1, Hspc300), human, untagged cDNA; printed mass 8.7 kDa; that is not this construct; The fraction holds many other proteins but no Wave complex; also called Brick1; Hspc300; source: 293T, transfected with pCS2-Brk1, partially purified (35%-55% ammonium sulfate cut, SEC on superdex-200)
For B1, in data set [2], the “stoichiometry N” value was determined as 3.

B2: human Brk1, in vitro translated, N-terminally tagged (PC-Brk1; the other copies in the self-association experiments are SBP-, Flag- or HA-Brk1) (natural protein, UniProt Q8WUW1 1-75, looked up)
chain: MAGQEDPVQREIHQDWANREYIEIITSSIKKIADFLNSFDMSCRSRLATLNEKLTALERRIEYIEARVTKGETLT
notes: Brick1 (Brk1, Hspc300), human; One molecule stands for the differently tagged copies of human Brk1 that were co-translated; also called SBP-Brk1; Flag-Brk1; source: in vitro translated (TnT, rabbit reticulocyte lysate, 35S-methionine), pCS2 plasmid; not shown: PC, N-terminal, kept
With B2, the “stoichiometry N” value in data set [3] was determined as 3.

The record behind these values is paper PMC2413427, “Free Brick1 Is a Trimeric Precursor in the Assembly of a Functional Wave Complex” (PLoS ONE, 2008).
